Reference: the supplement of paper PMC9170038

System: MS2 coat protein
Assay: apparent KD of MS2 coat protein; designed switch direction (-1 OFF switch, 1 ON switch): -1; higher = weaker reporter binding
Procedure, shortened: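 Each step of the titration lasted 0.8–1.5 h at the lowest concentration and 10–20 min at the highest. The protein, SNAP-549-labelled MS2 coat protein, went from 0.7 or 1.5 nM doubling to 3 µM over RNA switches transcribed on Illumina chips by stalled E. coli RNA polymerase. Normalised cluster fluorescence was curve-fitted, and the per-design median over clusters is given as apparent KD.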

[1] = input ligand: microRNA oligo, concentration not stated
[2] = Eterna round: R95, input ligand: FMN 200 uM
[3] = Eterna round: R95, input ligand: microRNA oligo, concentration not stated
[4] = Eterna round: R95, input ligand: none

Row | Sequence | apparent KD of MS2 coat protein (input ligand: FMN 200 uM) [nM] | apparent KD of MS2 coat protein [1] [nM] | apparent KD of MS2 coat protein (input ligand: none) [nM] | apparent KD of MS2 coat protein [2] [nM] | apparent KD of MS2 coat protein [3] [nM] | apparent KD of MS2 coat protein [4] [nM]
1 | UUAAAUCAUGUAGGAUAUGCGUGGCGAAGCUAUGCAGAAGGACAUGAGGAUCACCCAUGUGCUAGCGUCCGCGUACGGAUGCAA [JL ENG1 1.21] (Eterna round: R96, puzzle: Exclusion NG 1) | 131 | 57.1 | 62 | – | – | –
2 | UUAAAUCAUGUAGGAUAUGCUUUGCAAAGCGAAGCAGAAGGACAUGAGGAUCACCCAUGUGCUAGCGUCCGAGAACGGAUGCAA [Mat - Exclusion NG 1 - Mod of JL - D65] (Eterna round: R96, puzzle: Exclusion NG 1) | 501 | 60.6 | 61.5 | – | – | –
3 | UUAAUGAUUGUGAGGAUAUUUGAUAGAUAGAUAUUAGAGAAGGUACAUGAGGAUCACCCAUGUGUGAUUAGAGA [Brourd's EX4 #70] (Eterna round: R97, puzzle: Brourd's mod of Exclusion 4) | 164 | – | 75.4 | – | – | –
4 | UUAAUGGCUGUGAGGAUAUCGGAUAGAUAGAUAUUCGAGAAGGCACAUGAGGAUCACCCAUGUGUGAUUAGAGA [Brourd's EX4 #63] (Eterna round: R97, puzzle: Brourd's mod of Exclusion 4) | 130 | – | 26 | – | – | –
5 | UUAAUUAAUUAAGCGCAAGAUCACAUGAGGAUCACCCAUGUAUAGGAUAUCAGCUCGUUUAGAGCUGAGAAGGAUACAUAGCGC [ExNG3/2-A2] (Eterna round: R96, puzzle: Exclusion NG 3) | 738 | 155 | 172 | – | – | –
6 | UUAAUUAAUUAAGGCUGAAGAUCACAUGAGGAUCACCCAUGUAAGGAUAUCAGCUCGUGUAGAGCUGAGAAGGUACAUGCAGCC [ExNG3/18-B3] (Eterna round: R96, puzzle: Exclusion NG 3) | 50.6 | 345 | 336 | – | – | –
7 | UUAAUUAAUUAAUUAUAAGAUCAACAUGAGGAUCACCCAUGUGAGGAUAUCAGCUCGAUUAGAGCUGAGAAGGCACAAAUAAUU [ExNG3/16-B1] (Eterna round: R96, puzzle: Exclusion NG 3) | 147 | 53.6 | 44 | – | – | –
8 | UUAAUUAAUUAAUUAUAAGAUCAACAUGAGGAUCACCCAUGUGAGGAUAUCAGCUCGUGUAGAGCUGAGAAGGCACAAAUAAUU [ExNG3/16-B3] (Eterna round: R96, puzzle: Exclusion NG 3) | 86.5 | 27.9 | 51.5 | – | – | –
9 | UUACCAUGCCGCCUAAUAGCUUUUUGCUCGUCUUAUAUUACAUGAGGAUCACCCAUGUAAAACAUGUGGCGUGACCU [JL ViennaUCT Maridi mod 1] (puzzle: Sensor v3, turn-off variant 2) | – | – | – | 79.8 | 112 | 87.3
10 | UUAGAUAGGUCAGGAUAUCGAUGAUUGAAUAGUAUGAUUUACAUGAGGAUCACCCAUGUUAAAUACGAGAAGGGACGUUAGAUU [JR_ExcNG2_Sub021] (Eterna round: R96, puzzle: Exclusion NG 2) | 17.9 | 17.9 | 21.3 | – | – | –
11 | UUAGAUUGAGGAUAUUUGGAUCCGUACAUGAGGAUCACCCAUGUGUGUAGCACAUUCAACGGAGAAGGCGGUUUCU [Eternabot (L1) Solution 73] (Eterna round: R97, puzzle: Exclusion 5) | 143 | – | 256 | – | – | –
12 | UUAGGCUGAAGAUCAAUUAAUUAACAUGAGGAUCACCCAUGUAAGGAUAUCAGCUCGUUUAGAGCUGAGAAGGUACAUGCAGCC [ExNG3/18-A2] (Eterna round: R96, puzzle: Exclusion NG 3) | 351 | 121 | 118 | – | – | –
13 | UUAGUUUUGCAAGGAUAUGUUUAUUUAUAGUUGCCUCUUACAUGAGGAUCACCCAUGUUUUACUUACAGAAGGUGCAAUGAUUU [JR_ExcNG2_Sub034] (Eterna round: R96, puzzle: Exclusion NG 2) | – | 138 | – | – | – | –
14 | UUAUACGGUGAGGAUAUCUUCACUAAAGUGUGAAGAGAAGGCGCUACAUGAGGAUCACCCAUGUCUAUGGGCAG [Ex-6 Malc#17] (Eterna round: R96, puzzle: Exclusion 6) | – | 331 | – | – | – | –
15 | UUAUACGGUGAGGAUAUCUUCACUAAAGUGUGAAGAGAAGGCGCUACAUGAGGAUCACCCAUGUCUAUGGGCAG [Ex-6 Malc#17] (puzzle: Exclusion 6) | – | – | – | 118 | 187 | 156
16 | UUAUAUAAUGUGAGGAUAUGCUGGUCGAUAGAUCAGCAGAAGGCACAUGAGGAUCACCCAUGUAGUAAAUUUUA [Mat - Exclusion 4 - JL Mod - D13] (puzzle: Brourd's mod of Exclusion 4) | – | – | – | 25.5 | 16.4 | 16.2
17 | UUAUAUAGAGUGAGGAUAUGCUGGUCCUUGGAUCAGCAGAAGGCACAUGAGGAUCACCCAUGUAAUAUAAUAUU [Mat - Exclusion 4 - JL Mod - D38] (puzzle: Brourd's mod of Exclusion 4) | – | – | – | – | 21.1 | –
18 | UUAUAUAGUAUAGGAUAUUAGAGGAGAAUGGUGAUAGAGACAUGAGGAUCACCCAUGUGAGGAGAUAAGAAGGGUAAUAAUUAU [AK ExNG2-V2-3] (Eterna round: R96, puzzle: Exclusion NG 2) | 326 | 176 | 351 | – | – | –
19 | UUAUUAAGUGUGAGGAUAUGCUGGUCCUUGGAUCAGCAGAAGGCACAUGAGGAUCACCCAUGUAAUAUAUUUAU [JL bmx4 3.09] (puzzle: Brourd's mod of Exclusion 4) | – | – | – | – | 75.8 | –
20 | UUAUUAAUUAAGACUGCAAGAUCACAUGAGGAUCACCCAUGUCAGGAUAUCAGCUCGAUUAGAGCUGAGAAGGGACAAGCAGUC [ExNG3/15-A1] (Eterna round: R96, puzzle: Exclusion NG 3) | 334 | 112 | 99.6 | – | – | –
21 | UUAUUAAUUAAGACUGCAAGAUCACAUGAGGAUCACCCAUGUCAGGAUAUCAGCUCGUUUAGAGCUGAGAAGGGACAAGCAGUC [ExNG3/15-A2] (Eterna round: R96, puzzle: Exclusion NG 3) | 337 | 98 | 94.4 | – | – | –
22 | UUAUUAAUUAAUAUUAUAAGAUCACAUGAGGAUCACCCAUGUCAGGAUAUCAGCUCGAUUAGAGCUGAGAAGGGACAAAUAAUA [ExNG3/15-B1] (Eterna round: R96, puzzle: Exclusion NG 3) | 1450 | 157 | 268 | – | – | –
23 | UUAUUAAUUAAUAUUAUAAGAUCACAUGAGGAUCACCCAUGUCAGGAUAUCAGCUCGUGUAGAGCUGAGAAGGGACAAAUAAUA [ExNG3/15-B3] (Eterna round: R96, puzzle: Exclusion NG 3) | 576 | 451 | 306 | – | – | –
24 | UUAUUAUAUGAAGGAUAUACUUAACAUGAGGAUCACCCAUGUGGUGUUGUGAGUGAGUGAGUUUAGUAGAAGGUCAAUUAUUUU [JMF's solution 28] (Eterna round: R96, puzzle: Exclusion NG 2) | 833 | 287 | 335 | – | – | –
25 | UUAUUAUAUGUAGGAUAUGCAUAUUAUUAUUAUGCAGAAGGACAUGAGGAUCACCCAUGUAUAUUAUUAUUAUAUGUUAUAUAU [Title] (Eterna round: R96, puzzle: Exclusion NG 1) | – | 20.9 | – | – | – | –
26 | UUAUUAUAUGUAGGAUAUGCAUAUUAUUAUUAUGCAGAAGGACAUGAGGAUCACCCAUGUAUAUUGUUAUUAUAUAUUAUAUAU [Title] (Eterna round: R96, puzzle: Exclusion NG 1) | – | 21.7 | – | – | – | –
27 | UUAUUGGUAGUGAGGAUAUCGGAUAGAUAGAUAUUCGAGAAGGCACAUGAGGAUCACCCAUGUAAGAUUGGAAA [JR_BMEx4_Sub045] (Eterna round: R97, puzzle: Brourd's mod of Exclusion 4) | 155 | – | 38.5 | – | – | –
28 | UUAUUGGUUGUGAGGAUAUCGGAUAGAUAGAUAUUCGAGAAGGCACAUGAGGAUCACCCAUGUGUGAUUGGAAA [JR_BMEx4_Sub047] (Eterna round: R97, puzzle: Brourd's mod of Exclusion 4) | 276 | – | 27.9 | – | – | –
29 | UUAUUGUGAGGAUAUAUAUGCAGUAAUCCUUUAAAUUUAUAACUUGAGGAUCACCCAAGUAGAAGGCGCGAUAU [JR_Ex2_Sub055] (Eterna round: R97, puzzle: Exclusion 2) | 33 | – | 24.9 | – | – | –
30 | UUCAGACAUGAGGAUCACCCAUGUGAGGAUAUGAUGCGAUCGUCGAAAGACGAUAGCAUCAGAAGGCACAAAUG [Fiskers Ex 1 - 18] (puzzle: Exclusion 1) | – | – | – | – | 114 | –
